Experimental findings from publication PMC12170339, “Cryo-EM structure of the NDH–PSI–LHCI supercomplex from Spinacia oleracea” (Nature Structural & Molecular Biology, 2025) are described below.

The labels stand for the following.
B1: NdhA (natural protein, S. oleracea, UniProt Q9M3I6 1-365, looked up)
chain: MIIDTTTTKVQAINSFSRLEFLKEVYETIWMLFPILILVLGITIGVLVIVWLEREISASIQQRIGPEYAGPLGILQALADGTKLLFKENLLPSRGDTYLFSIGPSIAVISILLGYLIIPFGSRLVLADLSIGVFLWIAVSSIAPIGLLMSGYGSNNKYSFLGGLRAAAQSISYEIPLTLCVLSISLLSNSSSTVDIVEAQSKYGFWGWNLWRQPIGFIVFIISSLAECERLPFDLPEAEEELVAGYQTEYSGIKFGLFYVASYLNLLISSLFVTVLYLGGWNLSIPYIFISEFFEINKIDGVFGTTIGIFITLAKTFLFLFIPITTRWTLPRLRMDQLLNLGWKFLLPISLGNLLLTTSSQLFSL
notes: NdhA, SubM module of chloroplast NDH, S. oleracea; also called NhdA; source: purified from spinach (S. oleracea) leaves as part of the NDH–PSI–LHCI-2 supercomplex

Common to all, as to assay: cryo-EM structure; single-particle cryo-EM of the endogenous NDH–PSI–LHCI-2 supercomplex co-purified from spinach stromal lamellae in t-PCCαM; buffer A: 30 mM HEPES pH 7.8, 2 mM MgCl2, 2 mM KCl, 0.5 mM Na2-EDTA, 100 mM NaCl, 2 mM DTT, 0.04% t-PCCαM; 38,385 particles; 3.0–3.3 Å
The target in assay [1] is NADPH dehydrogenase (NDH) complex (S. oleracea) (UniProt Q9M3I6).
The target in another assay is T1, NdhH (S. oleracea, UniProt Q9M3I5 1-393).
T1 construct: NdhH, SubA module of chloroplast NDH, S. oleracea; source: purified from spinach (S. oleracea) leaves as part of the NDH–PSI–LHCI-2 supercomplex
T1 sequence (looked up): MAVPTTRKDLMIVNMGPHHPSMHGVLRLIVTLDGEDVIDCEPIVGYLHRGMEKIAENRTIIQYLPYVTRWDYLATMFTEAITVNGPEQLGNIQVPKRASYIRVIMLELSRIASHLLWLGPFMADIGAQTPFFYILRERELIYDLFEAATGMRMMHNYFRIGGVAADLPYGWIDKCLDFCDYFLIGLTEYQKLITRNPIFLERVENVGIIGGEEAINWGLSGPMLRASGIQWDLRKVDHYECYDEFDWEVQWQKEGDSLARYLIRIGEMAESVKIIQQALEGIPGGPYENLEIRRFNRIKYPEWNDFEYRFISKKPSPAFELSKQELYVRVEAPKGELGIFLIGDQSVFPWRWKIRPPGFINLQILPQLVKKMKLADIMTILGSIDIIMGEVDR
Particulars: both partners purified.

The target of another assay is T2, NdhK (S. oleracea, UniProt Q9M3M0 1-227).
T2 construct: NdhK, SubA module of chloroplast NDH, S. oleracea; source: purified from spinach (S. oleracea) leaves as part of the NDH–PSI–LHCI-2 supercomplex
T2 sequence (looked up): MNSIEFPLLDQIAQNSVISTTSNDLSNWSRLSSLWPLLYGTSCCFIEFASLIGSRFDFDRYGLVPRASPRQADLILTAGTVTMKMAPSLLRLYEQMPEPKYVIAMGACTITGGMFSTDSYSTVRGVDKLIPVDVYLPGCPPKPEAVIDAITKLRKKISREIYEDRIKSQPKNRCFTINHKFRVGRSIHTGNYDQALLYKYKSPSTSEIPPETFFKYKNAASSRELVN
Particulars: both partners purified.

The assay “NdhA” deals with B1. Particulars: both partners purified.

In assay [1], “PSI–LHCI-2 (photosystem I–light-harvesting complex I) (from UniProt P06511 1-750; P06512 1-734; P10098 1-81; P12353 51-212; P12355 78-231; P12357 70-167; P22179 50-144; P17228 1-33; P17230 1-44; P14627 1-29; Q41385 48-216)” returned a stoichiometry N (NDH per PSI–LHCI) of 1. For the molecule B1, the binding result in the assay with NdhH was “binds”.

B2: NdhC (natural protein, S. oleracea, UniProt Q9M3L9 1-120, looked up)
chain: MFLLYEYDIFWAFLIISSVIPILAFLFSGILAPISKGPEKLSSYESGIEPMGDAWLQFRIRYYMFALVFVVFDVETVFLYPWAMSFDILGVSVFIEALIFVLILIVGLVYAWRKGALEWS
notes: NdhC, SubM module of chloroplast NDH, S. oleracea; source: purified from spinach (S. oleracea) leaves as part of the NDH–PSI–LHCI-2 supercomplex
On to B2, for which the binding result in the assay with NdhH, with NdhK and in the assay with NdhA was “binds” throughout.
